The assay deals with T1, β-catenin (mouse, UniProt Q02248 2-781).
T1 construct: whole, on cells; Detected by immunostaining; also called B-catenin
T1 sequence (looked up): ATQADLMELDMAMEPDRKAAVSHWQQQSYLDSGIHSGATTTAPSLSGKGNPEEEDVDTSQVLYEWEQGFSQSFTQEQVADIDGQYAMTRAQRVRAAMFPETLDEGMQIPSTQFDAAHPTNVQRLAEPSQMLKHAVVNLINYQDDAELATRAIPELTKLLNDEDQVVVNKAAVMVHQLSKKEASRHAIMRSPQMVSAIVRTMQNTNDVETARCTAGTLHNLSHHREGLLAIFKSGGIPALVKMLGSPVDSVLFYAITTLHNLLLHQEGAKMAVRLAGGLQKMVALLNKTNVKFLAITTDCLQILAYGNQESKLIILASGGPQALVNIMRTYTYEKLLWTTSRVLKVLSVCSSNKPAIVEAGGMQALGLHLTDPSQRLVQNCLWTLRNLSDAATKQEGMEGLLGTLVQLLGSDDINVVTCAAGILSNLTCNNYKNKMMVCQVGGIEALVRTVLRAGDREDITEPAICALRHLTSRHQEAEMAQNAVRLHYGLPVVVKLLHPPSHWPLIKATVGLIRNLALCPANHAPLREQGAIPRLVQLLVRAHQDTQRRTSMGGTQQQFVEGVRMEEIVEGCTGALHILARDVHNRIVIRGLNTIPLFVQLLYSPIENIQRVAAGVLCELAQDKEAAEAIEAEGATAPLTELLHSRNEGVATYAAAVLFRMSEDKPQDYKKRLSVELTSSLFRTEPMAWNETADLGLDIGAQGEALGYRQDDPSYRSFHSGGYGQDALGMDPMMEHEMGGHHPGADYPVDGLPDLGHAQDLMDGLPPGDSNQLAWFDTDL
Briefly: co-immunostaining of wild-type mouse intestine sections (FIG. 7G).

B1: N-cadherin (other, mouse, UniProt P15116 160-906, looked up)
chain: DWVIPPINLPENSRGPFPQELVRIRSDRDKNLSLRYSVTGPGADQPPTGIFIINPISGQLSVTKPLDRELIARFHLRAHAVDINGNQVENPIDIVINVIDMNDNRPEFLHQVWNGSVPEGSKPGTYVMTVTAIDADDPNALNGMLRYRILSQAPSTPSPNMFTINNETGDIITVAAGLDREKVQQYTLIIQATDMEGNPTYGLSNTATAVITVTDVNDNPPEFTAMTFYGEVPENRVDVIVANLTVTDKDQPHTPAWNAAYRISGGDPTGRFAILTDPNSNDGLVTVVKPIDFETNRMFVLTVAAENQVPLAKGIQHPPQSTATVSVTVIDVNENPYFAPNPKIIRQEEGLHAGTMLTTLTAQDPDRYMQQNIRYTKLSDPANWLKIDPVNGQITTIAVLDRESPNVKNNIYNATFLASDNGIPPMSGTGTLQIYLLDINDNAPQVLPQEAETCETPEPNSINITALDYDIDPNAGPFAFDLPLSPVTIKRNWTINRLNGDFAQLNLKIKFLEAGIYEVPIIITDSGNPPKSNISILRVKVCQCDSNGDCTDVDRIVGAGLGTGAIIAILLCIIILLILVLMFVVWMKRRDKERQAKQLLIDPEDDVRDNILKYDEEGGGEEDQDYDLSQLQQPDTVEPDAIKPVGIRRLDERPIHAEPQYPVRSAAPHPGDIGDFINEGLKAADNDPTAPPYDSLLVFDYEGSGSTAGSLSSLNSSSSGGDQDYDYLNDWGPRFKKLADMYGGGDD
notes: whole, on cells; Detected by immunostaining
As to B1, the binding result was “binds”.

For the origin of these results see patent US20050271638A1 (published 2005).
